The subject of data set [1] is Lys1 (position 1, -----K-----). In words: NMR. The settings on record: ambient (SI general details say 1H NMR spectra were recorded at ambient temperature); none stated; pH adjusted with HCl/NaOH; free small peptide derivative in solution.
In data set [2] the test system is Lys1 (position 1, -----KG----). In words: NMR. The following applies: ambient (SI general details say 1H NMR spectra were recorded at ambient temperature); none stated; pH adjusted with HCl/NaOH; free small peptide derivative in solution.

In paper PMC9912261 one finds pKa data, which are given here for four substances.

For the substance “Ac-Lys-CN (N-acetyl-lysine nitrile) (synthetic)”, in data set [1], the pKa entry is recorded as “approximately 10.4”.

For “Ac-Lys-Gly-SH (N-acetyl-lysyl-glycine thioacid) (synthetic)”, the pKa result in data set [2] is given as “approximately 10.8”.

Regarding “Ac-Lys-OH (N-alpha-acetyl-lysine) (synthetic)”, the pKa result in data set [1] was “approximately 10.8”.

For the substance “Ac-Lys-SH (N-acetyl-lysine thioacid) (synthetic)”, the pKa result in data set [1] is reported as “approximately 10.8”.
